Results on 8 molecules are retold here after US20230094162A1 (MacroGenics, published 2023).

Where two headings read alike, the source gives them in different places.

One may read the EC50 (read off the curve) as the concentration giving half of the maximal effect. Lower therefore signals a more potent agent.

For assay [1], the target named is T1, PD-L1 expressed on the cell surface (CHO/PD-L1 cells) (UniProt Q9NZQ7 19-290). The assay is described as follows: cell-based or functional assay.
Assay [2] deals with T2, CD137 expressed on the cell surface (CHO/CD137 cells) (UniProt Q07011 24-255, limits assumed).
T2 construct: whole, on cells; also called cell surface CD137; Jurkat-NF-κB-Luc reporter cells overexpressing CD137
T2 sequence (Q07011 24-255 limits assumed): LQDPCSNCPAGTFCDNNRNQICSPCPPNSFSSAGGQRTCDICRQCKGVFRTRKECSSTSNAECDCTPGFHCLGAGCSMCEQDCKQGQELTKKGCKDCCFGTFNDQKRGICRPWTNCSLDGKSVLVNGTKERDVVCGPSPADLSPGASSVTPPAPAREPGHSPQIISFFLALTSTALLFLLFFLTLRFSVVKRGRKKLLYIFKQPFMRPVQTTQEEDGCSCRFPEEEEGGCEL
The assay is described as follows: flow cytometry (FACS) on CHO cells expressing CD137, MFI. The protocol: FACS analysis to evaluate the test articles for binding to cell surface CD137 was performed essentially as follows: 100 μL of CHO cells expressing CD137 (CHO/CD137) (1.0×10⁵ to 1×10⁶ cells/well) and 100 μL of serially diluted test article or control was added to each well of microtiter assay plate(s), mixed and incubated at RT for about 30 min. The cells were washed with FACS Buffer and secondary antibody (goat anti-human-APC, PE, or FITC) was then added to each well (1:1000), after which, the components were mixed and the wells were incubated at RT for about 30 min. Cells were washed and resuspended in 250 μL FACS Buffer and analyzed by flow cytometry (BD LSR Fortessa or FACSCanto II) for cell events collection. Data analysis were performed via FloJo v10.
Background: A flow cytometer gives signals particle by particle.

Assay [3] concerns the target T1, PD-L1 expressed on the cell surface …. Description: cell-based or functional assay. The source holds these as a separate data set.
Assay [4] deals with T3, soluble PD-L1 fused to a His tag (shPD-L1) (UniProt Q9NZQ7 19-238, limits assumed).
T3 construct: the species of shPD-L1 is not written out; also called shPD-L1-his; not shown: His tag
T3 sequence (Q9NZQ7 19-238 limits assumed): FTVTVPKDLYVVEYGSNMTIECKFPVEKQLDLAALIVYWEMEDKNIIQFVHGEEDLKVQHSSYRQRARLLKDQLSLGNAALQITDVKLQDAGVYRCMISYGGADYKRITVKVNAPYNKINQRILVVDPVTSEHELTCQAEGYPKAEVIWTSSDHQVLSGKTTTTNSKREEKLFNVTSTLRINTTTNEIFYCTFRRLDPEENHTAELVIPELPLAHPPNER
Description: ELISA on plate-coated shPD-L1-his, anti-human kappa-HRP detection, RLU. The protocol:
ELISA assays to evaluate the test articles for CD137 binding were performed essentially as follows: flat bottom maxisorb 96-well plates were coated with soluble human or cynomolgus monkey CD137 (the extracellular domain of human or cynomolgus monkey CD137 fused to a His tag (shCD137 His or scyCD137 His) or to a human Fc Region (shCD137 hFc or scyCD137 hFc)), each at 0.5 or 1 μg/mL. The plates were washed, blocked with PBS buffer containing 0.5% bovine serum albumin and 0.1% Tween20, and incubated with a test article (e.g., cell supernatants or purified mAb). For the hybridoma supernatants anti-CD137 antibody was utilized at 1.0 μg/mL and six three-fold serial dilutions. The amount of test article binding to the immobilized CD137 (human or cynomolgus monkey) was assessed using a goat anti-mouse IgG-HRP secondary antibody. All samples were analyzed on a plate reader (Victor 2 Wallac, Perkin Elmer) and EC50 values were calculated from dose-response curves by nonlinear regression analysis.
The binding of Fab fragments comprising different combinations of these substitutions to shPD-L1-his was evaluated by ELISA essentially as described above except a goat anti-human kappa-HRP secondary antibody was used.
In general terms: In an ELISA, binding on a coated surface is turned into a signal by an enzyme label.

T1 sequence (Q9NZQ7 19-290): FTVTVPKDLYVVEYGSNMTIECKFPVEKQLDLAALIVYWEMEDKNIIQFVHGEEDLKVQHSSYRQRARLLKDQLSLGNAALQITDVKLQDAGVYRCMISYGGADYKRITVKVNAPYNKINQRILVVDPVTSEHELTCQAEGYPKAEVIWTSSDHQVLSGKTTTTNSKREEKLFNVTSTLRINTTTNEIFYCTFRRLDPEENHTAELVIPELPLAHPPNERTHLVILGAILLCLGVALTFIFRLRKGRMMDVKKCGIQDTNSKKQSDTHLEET

B1: DART-A10 (bispecific antibody)
chain 1: DIQMTQSPSSLSASVGDRVTITCKASQDVNEAVAWYQQKPGKAPKLLIYWASTRHTGVPSRFSGSGSGTDFTLTISSLQPEDFATYYCQQHYNTPLTFGQGTKVEIKGGGSGGGGQVQLQESGPGLVKPSETLSLTCTVSGGSISSYYWSWIRQPPGKGLEWIGRIYTSGSTNYNPSLKSRVTMSVDTSKNQFSLKLSSVTAADTAVYYCARDGWYDEDYNYYGMDVWGQGTTVTVSSGGCGGGEVAACEKEVAALEKEVAALEKEVAALEKLEPKSADKTHTCPPCPAPEAAGGPSVFLFPPKPKDTLYITREPEVTCVVVDVSHEDPEVKFNWYVDGVEVHNAKTKPREEQYNSTYRVVSVLTVLHQDWLNGKEYKCKVSNKALPAPIEKTISKAKGQPREPQVYTLPPSREEMTKNQVSLTCLVKGFYPSDIAVEWESNGQPENNYKTTPPVLDSDGSFFLYSKLTVDKSRWQQGNVFSCSVMHEALHNHYTQKSLSLSPGK
chain 2: EIVMTQSPATLSLSPGERATLSCRASQSVSSNYLSWFQQKPGQAPRLLIYGASTRATGIPARFSGSGSGTDFTLTISSLQPEDFAVYYCQQDYDLPWTFGQGTKVEIKGGGSGGGGEVQLVESGGGLVQPGGSLRLSCAASGFTFSSYTMSWVRQAPGKGLEWVAYISIGGGTTYYPDTVKGRFTISRDNAKNSLYLQMNSLRAEDTAVYYCARAGLPYYFDYWGQGTLVTVSSGGCGGGKVAACKEKVAALKEKVAALKEKVAALKE
notes: Tetravalent; CD137 MAB-6(1.3) and hPD-L1 MAB-2(4.2)
B1: the “EC50 (read off the curve)” value in assay [1] is around 0.2 µg/mL; in assay [2], around 0.05 µg/mL.

B2: DART-A9 (bispecific antibody)
chain 1: DIQMTQSPSSLSASVGDRVTITCKASQDVNEAVAWYQQKPGKAPKLLIYWASTRHTGVPSRFSGSGSGTDFTLTISSLQPEDFATYYCQQHYNTPLTFGQGTKVEIKGGGSGGGGQVQLQESGPGLVKPSETLSLTCTVSGGSISSYYWSWIRQPPGKGLEWIGRIYTSGSTNYNPSLKSRVTMSVDTSKNQFSLKLSSVTAADTAVYYCARDGWYDEDYNYYGMDVWGQGTTVTVSSGGCGGGEVAACEKEVAALEKEVAALEKEVAALEKLEPKSADKTHTCPPCPAPEAAGGPSVFLFPPKPKDTLYITREPEVTCVVVDVSHEDPEVKFNWYVDGVEVHNAKTKPREEQYNSTYRVVSVLTVLHQDWLNGKEYKCKVSNKALPAPIEKTISKAKGQPREPQVYTLPPSREEMTKNQVSLTCLVKGFYPSDIAVEWESNGQPENNYKTTPPVLDSDGSFFLYSKLTVDKSRWQQGNVFSCSVMHEALHNHYTQKSLSLSPGK
chain 2: EIVMTQSPATLSLTPGERATLSCRASQSVSSNYLSWFQQIPGQAPRLLIYGASTRATGIPARFSGSGSGTDFTLTISSLQPEDFAVYYCQQDYDLPWTFGQGTKVEIKGGGSGGGGEVQLVESGGGLVQPGGSLRLSCAASGFTFSSYTMSWVRQAPGKGLEWVAYISIGGGTTYYPDTVKGRFTISRDNAKNSLYLQMNSLRAEDTAVYYCARAGLPYYGDYWGQGTLVTVSSGGCGGGKVAACKEKVAALKEKVAALKEKVAALKE
For B2, in assay [3], the “EC50 (read off the curve)” value was around 0.1 µg/mL.

B3: DART-A8 (bispecific antibody)
chain 1: DIQMTQSPSSLSASVGDRVTITCKASQDVNEAVAWYQQKPGKAPKLLIYWASTRHTGVPSRFSGSGSGTDFTLTISSLQPEDFATYYCQQHYNTPLTFGQGTKVEIKGGGSGGGGQVQLQESGPGLVKPSETLSLTCTVSGGSISSYYWSWIRQPPGKGLEWIGRIYTSGSTNYNPSLKSRVTMSVDTSKNQFSLKLSSVTAADTAVYYCARDGWYDEDYNYYGMDVWGQGTTVTVSSGGCGGGEVAACEKEVAALEKEVAALEKEVAALEKLEPKSADKTHTCPPCPAPEAAGGPSVFLFPPKPKDTLYITREPEVTCVVVDVSHEDPEVKFNWYVDGVEVHNAKTKPREEQYNSTYRVVSVLTVLHQDWLNGKEYKCKVSNKALPAPIEKTISKAKGQPREPQVYTLPPSREEMTKNQVSLTCLVKGFYPSDIAVEWESNGQPENNYKTTPPVLDSDGSFFLYSKLTVDKSRWQQGNVFSCSVMHEALHNHYTQKSLSLSPGK
chain 2: EIVMTQSPATLSLTPGERATLSCRASQSVSSNYLSWFQQIPGQAPRLLIYGASTRATGIPARFSGSGSGTDFTLTISSLQPEDFAVYYCQQDYDLPWTFGQGTKVEIKGGGSGGGGEVQLVESGGGLVQPGGSLRLSCAASGFTFSSYTMSWVRQAPGKGLEWVAYISIKGGTTYYPDTVKGRFTISRDNAKNSLYLQMNSLRAEDTAVYYCARAGLPYYFDYWGQGTLVTVSSGGCGGGKVAACKEKVAALKEKVAALKEKVAALKE
Turning to B3, in assay [3], the “EC50 (read off the curve)” value is around 0.1 µg/mL.

B4: hPD-L1 MAB-2A (Fab) (Fab, V domains shown)
VH: EVQLVESGGGLVQPGGSLRLSCAASGFTFSGYTMSWVRQAPGKGLEWVAYISIKGGTTYYPDTVKGRFTISRDNAKNTLYLQMNSLKTEDTAVYYCARAGLPYYFDYWGQGTLVTVSS
VL: DIQMTQSPSSLSASVGDRVTITCKASQHVNTAVAWYQQKPGKAPKLLIYWASTRHTGVPSRFSGSGSGTDFTLTISSLQPEDFATYYCQQHYNTPLTFGQGTKVEIK
notes: Fab fragment
On to B4, for which the binding result in assay [4] is on record as “binds”.

B5: hPD-L1 MAB-2C (Fab) (Fab, V domains shown)
VH: EVQLVESGGGLVQPGGSLRLSCAASGFTFSGYTMSWVRQAPGKGLEWVAYISIKGGTTYYPDTVKGRFTISRDNAKNTLYLQMNSLKTEDTAVYYCARQGLPYYGDYWGQGTLVTVSS
VL: DIQMTQSPSSLSASVGDRVTITCKASQLVNTAVAWYQQKPGKAPKLLIYWASTRHTGVPSRFSGSGSGTDFTLTISSLQPEDFATYYCQQHYNTPLTFGQGTKVEIK
notes: Fab fragment
Consider B5, for which the binding result in assay [4] was “binds”.

B6: hPD-L1 MAB-2B (Fab) (Fab, V domains shown)
VH: EVQLVESGGGLVQPGGSLRLSCAASGFTFSGYTMSWVRQAPGKGLEWVAYISIKGGTTYYPDTVKGRFTISRDNAKNTLYLQMNSLKTEDTAVYYCARGGLPYYFDYWGQGTLVTVSS
VL: DIQMTQSPSSLSASVGDRVTITCKASQVVNTAVAWYQQKPGKAPKLLIYWASTRHTGVPSRFSGSGSGTDFTLTISSLQPEDFATYYCQQHYNTPLTFGQGTKVEIK
notes: Fab fragment
For B6, the binding result in assay [4] is recorded as “binds”.

B7: hPD-L1 MAB-2D (Fab) (Fab, V domains shown)
VH: EVQLVESGGGLVQPGGSLRLSCAASGFTFSSYTMSWVRQAPGKGLEWVAYISIGGGTTYYPDTVKGRFTISRDNAKNTLYLQMNSLKTEDTAVYYCARQGLPYYGDYWGQGTLVTVSS
VL: DIQMTQSPSSLSASVGDRVTITCKASQLVNTAVAWYQQKPGKAPKLLIYWAETRHTGVPSRFSGSGSGTDFTLTISSLQPEDFATYYCQQHYNTPLTFGQGTKVEIK
notes: Fab fragment
For the molecule B7, the binding result in assay [4] is “binds”.

B8: hPD-L1 MAB-2E (Fab) (Fab, V domains shown)
VH: EVQLVESGGGLVQPGGSLRLSCAASGFTFSSYTMSWVRQAPGKGLEWVAYISIKGGTTYYPDTVKGRFTISRDNAKNTLYLQMNSLKTEDTAVYYCARAGLPYYFDYWGQGTLVTVSS
VL: DIQMTQSPSSLSASVGDRVTITCKASQLVNTAVAWYQQKPGKAPKLLIYWASTRHTGVPSRFSGSGSGTDFTLTISSLQPEDFATYYCQQHYNTPLTFGQGTKVEIK
notes: Fab fragment
With B8, the binding result in assay [4] is on record as “binds”.
